Laboratory results reported in US20050250935A1 (priority 2004, published 2005).

human follicle—stimulating hormone [FSH]
estimated FSH activity, in vivo biological assay in rat: 6578 IU per mg protein | FSH activity in the lower sample after centrifugation, in vivo test (rat): undetectable | FSH activity in the upper sample after centrifugation, in vivo test (rat): 97%
